# Experimental data as given in patent US20020062008A1.
# What was measured:
# [1] = target: soluble human αd/CD18 leucine zipper heterodimer (human) (UniProt P05107); assay: ELISA, CAM/Ig on αd/CD18LZ captured with 212D
# [2] = target: LFA-1 leucine zipper fusion protein (soluble CD11a/CD18) (UniProt P20701); assay: ELISA, CAM/Ig on captured soluble CD11a/CD18
fold increase in signal above background [1],fold above background [2],Binder
5 fold,,"soluble VCAM-1/IgG1 fusion protein (seven extracellular immunoglobulin-like domains) (Fc fusion, UniProt P19320 25-698, looked up, not shown: a dimerising Fc or GST) FKIETTPESRYLAQIGDSVSLTCSTTGCESPFFSWRTQIDSPLNGKVTNEGTTSTLTMNPVSFGNEHSYLCTATCESRKLEKGIQVEIYSFPKDPEIHLSGPLEAGKPITVKCSVADVYPFDRLEIDLLKGDHLMKSQEFLEDADRKSLETKSLEVTFTPVIEDIGKVLVCRAKLHIDEMDSVPTVRQAVKELQVYISPKNTVISVNPSTKLQEGGSVTMTCSSEGLPAPEIFWSKKLDNGNLQHLSGNATLTLIAMRMEDSGIYVCEGVNLIGKNRKEVELIVQEKPFTVEISPGPRIAAQIGDSVMLTCSVMGCESPSFSWRTQIDSPLSGKVRSEGTNSTLTLSPVSFENEHSYLCTVTCGHKKLEKGIQVELYSFPRDPEIEMSGGLVNGSSVTVSCKVPSVYPLDRLEIELLKGETILENIEFLEDTDMKSLENKSLEMTFIPTIEDTGKALVCQAKLHIDDMEFEPKQRQSTQTLYVNVAPRDTTVLVSPSSILEEGSSVNMTCLSQGFPAPKILWSRQLPNGELQPLSENATLTLISTKMEDSGVYLCEGINQAGRSRKEVELIIQVTPKDIKLTAFPSESVKEGDTVIISCTCGNVPETWIILKKKAETGDTVLKSIDGAYTIRKAQLKDAGVYECESKNKVGSQLRSLTLDVQGRENNKDYFSPE"
,10 fold,"ICAM-2/Ig (Fc fusion, part only; not given: Ig portion, UniProt P13598 25-223, looked up, part only) chain, part: KVFEVHVRPKKLAVEPKGSLEVNCSTTCNQPEVGGLETSLDKILLDEQAQWKHYLVSNISHDTVLQCHFTCSGKQESMNSNVSVYQPPRQVILTLQPTLVAVGKSFTIECRVPTVEPLDSLTLFLFRGNETLHYETFGKAAPAPQEATATFNSTADREDGHRNFSCLAVLDLMSRGGNIFHKHSAPKMLEIYEPVSDSQ"
